According to the nanobody polyreactivity screen of Harvey et al. (2022):

Assay: yeast display, Sf9 membrane polyspecificity reagent, FACS + sequencing; frameworks hold sequencing errors
How it was run: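 Sorting gates, low and high (top ~1%), were placed on anti-HA fluorescence to track expression and on streptavidin fluorescence to track reagent binding. A clone's polyreactivity label is taken from the gate it came out of. The reagent was 10% biotinylated, detergent-solubilized Sf9 membrane, applied for 1 hour at 4 °C to galactose-induced yeast display cells.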

Q: With “QVQLVESGGGLVQAGGSLRLSCAASGSTFGYYAMGWYRQAPGKERELVAAIRWCGGSTYADSVKGRFTISRDNAKNTVYLQMNSLKPEDTEVYYCAQYRWYGSVLGGYWGQGTQVTVSS” as the sequence, how does the “polyreactivity (PSR sort gate)” value read?
A: high polyreactivity

Q: For “QVQLVESGGGLVQAGGSLRLSCAASGSTFGYYAMGWYRQAPGKERELVAAISGSGGSTYYADSVKGRFTISRDNAKNTVYLQMNSLKPEDTAVYYCAATFHRLPKWGSPYYYWGQGTQVTVSS”, which “polyreactivity (PSR sort gate)” value is on record?
A: high polyreactivity

Q: For “QVQLVESGGGLVQAGGSLRLSCAASGSTFGYYAMGWYRQAPGKERELVAAISKRGGSTYYADSVKGRFTISRDNAKNTVYLQMNSLKPEDTAVYYCAAAPYKYPGDYWGQGTQVTVSS”, which “polyreactivity (PSR sort gate)” value is on record?
A: high polyreactivity

Q: For “QVQLVESGGGLVQAGGSLRLSCAASGSTFGYYAMGWYRQAPGKERELVAAISVRGGRTYYADSVKGRFTISRDNAKNTVYLQMNSLKPEDTAVYYCATLLPGLGRYGYDYWGHGTQVTVSS”, which “polyreactivity (PSR sort gate)” value is on record?
A: high polyreactivity

Q: Which “polyreactivity (PSR sort gate)” value does the source give for “QVQLVESGGGLVQAGGSLRLSCAASGSTFGYYAMGWYRQAPGKERELVAAITRGGGRTYYADSVKGRFTISRDNAKNTVYLQMNSLKPEDTAVYYCAAVEPTREYYYWGQGTQVTVSS” here?
A: high polyreactivity

Q: With “QVQLVESGGGLVQAGGSLRLSCAASGSTFGYYAMGWYRQAPGKERELVAAITSSGGSTYYSDSVKGRFTISRDNAKNTVYLQMYSMNPEDTAVYDCNTRWCFYIDPFYYEYDYWGQGSQVTVSS” as the sequence, how does the “polyreactivity (PSR sort gate)” value read?
A: low polyreactivity

Q: With “QVQLVESGGGLVQAGGSLRLSCAASGSTFGYYAMGWYRQAPGKERELVATITKRGGSTYADSVKGRFTISRDNAKNTVYLQMNSLKPEDTAVYYCAKLPFEDYDYWGQGTQVTVSS” as the sequence, how does the “polyreactivity (PSR sort gate)” value read?
A: low polyreactivity

Q: For “QVQLVESGGGLVQAGGSLRLSCAASGSTFGYYAMGWYRQAPGKERELVATITWSGGSTNYADSVKGRFTISRDNAKNTVYLQMNSLKPEDTAVYYCAADLKYWYFGLAFIEVDYWGQGTQVTVSS”, which “polyreactivity (PSR sort gate)” value is on record?
A: low polyreactivity

Q: Which “polyreactivity (PSR sort gate)” value does the source give for “QVQLVESGGGLVQAGGSLRLSCAASGSTFGYYAMGWYRQAPGKESELVAAISAGGGSTYYADSVKGRFTISRDNAKNTVYLQLNSLKPEDTAVYFCAARRPHMPVKTYDYWGQGTLVTVSS” here?
A: high polyreactivity

Q: Which “polyreactivity (PSR sort gate)” value does the source give for “QVQLVESGGGLVQAGGSLRLSCAASGSTFGYYARGWYRQAPGKERELVAAISWSGTRTYYADSVKGRFTISRDNATNTVYLQMNSLKPEDTAVYYCAVRISRPRVYYYWGQGTQVTVSS” here?
A: high polyreactivity

Q: Which “polyreactivity (PSR sort gate)” value does the source give for “QVQLVESGGGLVQAGGSLRLSCAASGSTFGYYGMGWYRQAPGKERELVAAISTGGRTNYADSVKGRFTISRDNAKNTVYLQMNSLKPEVTAVYYCAADFLCTAYRPSWYRFDYWGQGTQVTVSS” here?
A: low polyreactivity

Q: With “QVQLVESGGGLVQAGGSLRLSCAASGSTFGYYTKGWYRQAPGKERELVAAITWSGGSTYYADSVKGRFTISRDNAKNTVYLQMNSLKPEDTAVYYCAADDYWTPFGYWGQGTQVTVSS” as the sequence, how does the “polyreactivity (PSR sort gate)” value read?
A: low polyreactivity

Q: With “QVQLVESGGGLVQAGGSLRLSCAASGSTFGYYTMGWYRQAPGKERELVAAISRSGGRTYYADSVKGRFTISRDNAKNAVYLQMNSLKPEDTAVYYCNADGTRYAGDDYWGQGTQVTVSS” as the sequence, how does the “polyreactivity (PSR sort gate)” value read?
A: high polyreactivity

Q: With “QVQLVESGGGLVQAGGSLRLSCAASGSTFGYYTMGWYRQAPGKERELVAAISYSGGRTFYADSVKGRFTISRDNAKNTVFLQMHCLKPEDTAVYYCNNRYIPSFLSHLDYWGQGTHVTVSS” as the sequence, how does the “polyreactivity (PSR sort gate)” value read?
A: high polyreactivity

Q: Which “polyreactivity (PSR sort gate)” value does the source give for “QVQLVESGGGLVQAGGSLRLSCAASGSTFHFYAMGWYRQAPGKERELVASITSRGGNTHYADSVKGRFTISRDNAKNTVYLQMNRLKPEDTAVYYCAARGGWYGTYDYLGQGTQVTVSS” here?
A: low polyreactivity

Q: Which “polyreactivity (PSR sort gate)” value does the source give for “QVQLVESGGGLVQAGGSLRLSCAASGSTFHGYALGWYRQAPGKERELVAAISWSGGRTYYADSVKGRFTISRDNAKNTVYLQMNSLKPEDTAVYYCNKDGYYRWQSTYLANRYDYWGQGTQVTVSS” here?
A: high polyreactivity

Q: For “QVQLVESGGGLVQAGGSLRLSCAASGSTFHKYAMGWYRQAPGKEREFVAAISWSGGSTYYADSVKGRFTISRDNAKNTVYLQMNSLKPEDTAVYYCAAKGGVSRARWRSIFWHDYWGQGTQVTVSS”, which “polyreactivity (PSR sort gate)” value is on record?
A: high polyreactivity

Q: For “QVQLVESGGGLVQAGGSLRLSCAASGSTFHLYAMGWYRQAPGKERELVAAITRGGGSTYYADSVKGRFTISRDYAKNTVYLQMNSLKPEDTAVYYCNARGPSSYRYEYWGQGTQVTVSS”, which “polyreactivity (PSR sort gate)” value is on record?
A: high polyreactivity

Q: Which “polyreactivity (PSR sort gate)” value does the source give for “QVQLVESGGGLVQAGGSLRLSCAASGSTFHPYAMGRYRQAPGKERELVAAITWRVGSTYYADSVKGRFTISRDNAKNSVYLQMNSLKPEDTAVYYCAVSYLSTLGRSRYDYWGQGTQVTVSS” here?
A: low polyreactivity

Q: With “QVQLVESGGGLVQAGGSLRLSCAASGSTFHRYTMGWYRQAPGKERELVAAISSGVNTDYADSVKGRFTISRDNAKNTVYLQMNSLKPEDTEVYYCNTSFGSPQVVRYEYWGQGTQVTVSS” as the sequence, how does the “polyreactivity (PSR sort gate)” value read?
A: low polyreactivity

Q: For “QVQLVESGGGLVQAGGSLRLSCAASGSTFHSNAMGWYRQAPGKERELVAAISQGGGRTYYADSVKGRFSISRDNAKNTVYLQMNSLKPEDTAVYYCNRRTRGLIDGGMDYWGQGTQGTVSS”, which “polyreactivity (PSR sort gate)” value is on record?
A: low polyreactivity

Q: Which “polyreactivity (PSR sort gate)” value does the source give for “QVQLVESGGGLVQAGGSLRLSCAASGSTFHYYAMGWYRQAPGKERELVAAINSGARTYYADSVKGRFTISRDNAKNTVYLQMNSLKTEDTAVYYCNKAFQWSGGQVSYDYWGQGTQVTVSS” here?
A: low polyreactivity

Q: Which “polyreactivity (PSR sort gate)” value does the source give for “QVQLVESGGGLVQAGGSLRLSCAASGSTFHYYARGWYSQAPGKDRELVAAIRTSGGSTYYADSVKGRFTISRDNEKNTVYLLMNCLKPEDTAVYYCNRVLGYPYGVDYWGQGTQVTVSS” here?
A: high polyreactivity

Q: Which “polyreactivity (PSR sort gate)” value does the source give for “QVQLVESGGGLVQAGGSLRLSCAASGSTFIDYAMGWYRQAPGKERELVAAITNGGNTKYADSVKGRFTISRDNAKNTVYLLMISLNPEDTAVYYCAREPSIFTPSYDYWGQGTQVTVSS” here?
A: low polyreactivity

Q: Which “polyreactivity (PSR sort gate)” value does the source give for “QVQLVESGGGLVQAGGSLRLSCAASGSTFIGFAMGWYRQAPGKERELVAAITSDGRTNYADSVKGRFTISRDNAKNTVYLQMNSLKPEDTAVYYCAAQILGTFYEYDYWGQGTQVTVSS” here?
A: low polyreactivity

Q: Which “polyreactivity (PSR sort gate)” value does the source give for “QVQLVESGGGLVQAGGSLRLSCAASGSTFIGNAMGWYRQAPGKERELVAAITRSGGSTFYADSVKGRFTISRDNAKNTVYLQMNSLKPEDTAVYYCAAKGNPYRVPGSSYPKVNYWGQGTQVTVSS” here?
A: high polyreactivity

Q: With “QVQLVESGGGLVQAGGSLRLSCAASGSTFIGSDMGWYRQAPGKERELVAAISYSDGTYYADSVKGRFTISRDNAKNTVYLQMNSLKPEDTAVYYCATSYRDIGSHVGYWGQGTQVTVSS” as the sequence, how does the “polyreactivity (PSR sort gate)” value read?
A: low polyreactivity

Q: For “QVQLVESGGGLVQAGGSLRLSCAASGSTFIGYAMGWYRHAPGKERELVAGINWSSGSTNYADSVKGRFTISRDNAKNTVYLQMNSLIPEDTAVYYCAADLYWYAHREEYDYWGQGTQVTVSS”, which “polyreactivity (PSR sort gate)” value is on record?
A: high polyreactivity

Q: Which “polyreactivity (PSR sort gate)” value does the source give for “QVQLVESGGGLVQAGGSLRLSCAASGSTFILNAMGSYRQAPGKERELVAAISLSGGSTYYADSVKGRFTISRDNAKNTVYLQMNSQKPEDTAVYYCAAEQWYDNYLEYDYWGQGTQVTLSS” here?
A: high polyreactivity

Q: With “QVQLVESGGGLVQAGGSLRLSCAASGSTFILYAMGWYRHAPGKERELVAAISRSTGITYYADSVKGRFTISRDNAKNTVYLQMNSLKPEDTAGYYCAADAWGYNDYDASYSTGYEYWGQGTQVTVSS” as the sequence, how does the “polyreactivity (PSR sort gate)” value read?
A: high polyreactivity

Q: For “QVQLVESGGGLVQAGGSLRLSCAASGSTFILYAMGWYRQAPGKERELVAAISSDGSTYYADSVKGRFTISRDNAKNTVYLQMNSLKPEDTAVYYCAAYGYDADTGYDYWGLGTQVTVSS”, which “polyreactivity (PSR sort gate)” value is on record?
A: low polyreactivity

Q: Which “polyreactivity (PSR sort gate)” value does the source give for “QVQLVESGGGLVQAGGSLRLSCAASGSTFINYAKGWYRHAPGKERELVAAYADSVKGRFSISRDNAKNTVYLQMNSLKPEDTAVYYCAARGTIYVLGVPARPVPDGDYWGQGTQVTVSS” here?
A: low polyreactivity

Q: For “QVQLVESGGGLVQAGGSLRLSCAASGSTFINYAMGWYRQAPGKERELVATISSNGGSTYYADSVKGRFTISRDNAKNTVYLQMNRLKPEDTAVYYCAADGKQYGFYYWGQGTQVTVSS”, which “polyreactivity (PSR sort gate)” value is on record?
A: low polyreactivity

Q: Which “polyreactivity (PSR sort gate)” value does the source give for “QVQLVESGGGLVQAGGSLRLSCAASGSTFIRNAMGWYRQAPGKERELVAAISGSGVSTRYADSVKGRFTISRDNAKNTVYLQMNSLKPEDTAVYYCAKRKQYPYTMGYWGQGTQVTVSS” here?
A: high polyreactivity

Q: Which “polyreactivity (PSR sort gate)” value does the source give for “QVQLVESGGGLVQAGGSLRLSCAASGSTFISYAMGWSRQAPGKERELVAAISSSTGRTYYADSVKGRVTISRDNAKNTVYLQMNSLKPEDTAVYYCNAVHRYERDYWGQGTQVTVSS” here?
A: high polyreactivity

Q: For “QVQLVESGGGLVQAGGSLRLSCAASGSTFIVYAMGWYRQAPGKERELVAAITASGGSTYADSVKGRFTISRDNAKNTVYLQMNSLKPEDTAVYYCAARRWSRKYRKYDYWGQGTQVTVSS”, which “polyreactivity (PSR sort gate)” value is on record?
A: high polyreactivity

Q: With “QVQLVESGGGLVQAGGSLRLSCAASGSTFIYNAMGWYRQAPGKERELVAGITGSGGSTYYADSVKGRFTISRDNAKNNVYLQMNSLKPEDTAVYYCAADRHIHYTDARMDYWGQGTQVTVSS” as the sequence, how does the “polyreactivity (PSR sort gate)” value read?
A: low polyreactivity

Q: With “QVQLVESGGGLVQAGGSLRLSCAASGSTFKAYAMGWYRQAPGKERELVAAITNSDGDTYYADSVKGRFTISRDNAKNTVYLQMNSLKPEDTAVYYCIADTGKWGGNGWYEFDYWGQGTQVTVSS” as the sequence, how does the “polyreactivity (PSR sort gate)” value read?
A: low polyreactivity

Q: Which “polyreactivity (PSR sort gate)” value does the source give for “QVQLVESGGGLVQAGGSLRLSCAASGSTFKFNAMGWYRQAPGKETELVATITSRGSRTYYADSVKGRFTISRDNAKNTVYLQMNSLKPEDTAVYYCAARVFRPYGSLYDYWGQGTQVTVSS” here?
A: high polyreactivity

Q: Which “polyreactivity (PSR sort gate)” value does the source give for “QVQLVESGGGLVQAGGSLRLSCAASGSTFKFYAMGWYRQAPGKERELVASITSSSGPTYYADSVKGRFTISRDNAKNTVYLQLNSLKPEDTAVDYCAKRPIRYYHLLRGNYWGQGTQVTVSS” here?
A: low polyreactivity

Q: With “QVQLVESGGGLVQAGGSLRLSCAASGSTFKFYTMGWYRQAPGKERELVATIDWSGGSTYYADSVKGRFTISRDNAKNTVYLQMNSLKPEDTSVYYCAAYSRSRTTRLGKYYYWGQGTQVTVSS” as the sequence, how does the “polyreactivity (PSR sort gate)” value read?
A: high polyreactivity

Q: For “QVQLVESGGGLVQAGGSLRLSCAASGSTFKGNAMGWYRQAPGKERELVAAITFSGGSTYYADSVKGRFTISRDNAKNTVYLQMNSLKPEDTAVYYCAKGEWVYWRPWYEYWGQGTQVTVSS”, which “polyreactivity (PSR sort gate)” value is on record?
A: low polyreactivity

Q: For “QVQLVESGGGLVQAGGSLRLSCAASGSTFKGYSMGWYRQAPGKERALVAAISRSGTRTYYADSVKGRFTISRDNAKNTVYLHMTILKPEVTAVYYCNKVTGFIAHDNEKGRDYWGQGTQVTVSS”, which “polyreactivity (PSR sort gate)” value is on record?
A: low polyreactivity
